Key:
[1] = test system: HCT8 enterocyte and HT29-MTX goblet cell lines; assay: Oris Cell Migration assay (epithelial cell wound healing); assay type: cell-based, human; conditions: 48 hours; SG-11 1 μg/ml, EGF 30 ng/ml, staurosporine 100 nM; FIG. 2
From the text: The 96 well Oris Cell Migration assay containing plugs preventing cell attachment in the center of each well was used according to the manufacturer's instructions (Platypus Technologies. Madison, Wis.).
The migration assay plates were warmed to room temperature prior to use and plugs were removed rom 100% confluence wells prior to cell addition. The HCT8 enterocyte and HT29-MTX goblet cell lines were used at a 9:1 ratio with a total of 5×10^4 total cells added per well (4.5×10^4 HCT8 cells and 0.5×10^4 HT29-MTX cells). Cells were incubated at 37° C.+5% CO2 for 24 hours. Plugs were then removed from all control and sample wells. Control wells included cells treated with the diluent vehicle as the blank, 30 ng/ml epidermal growth factor (EGF) as the positive control, and 100 nM staurosporine as the negative control, all diluted in cRPMI. Sample wells contained SG-11 protein (SEQ ID NO:9) at a concentration of 1 μg/ml diluted in eRPMI. 100% and 0% wells were cultured in cRPMI. […] The green fluorescent viability dye Calcenin AM was added to all wells at a concentration of 0.5 μg/min PBS containing 0.9 mM CaCl2 and 0.5 mM MgCl2, incubated for 30 min at 37° C.+5% CO2, the dye was removed and cells were washed in PBS containing 0.9 mM CaCl2 and 0.5 mM MgCl2, and fluorescence was measured. […] Samples were normalized between 100% and 0% samples and values expressed as a percent growth.

[2] = stability by analytical size exclusion chromatography and Ellman's reagent assay (Example 9); assay type: physicochemical
Experimental: The stability of SG-11 (SEQ ID NO:9) was evaluated following the incubation at 37° C. for one week and at 4° C. for 3 weeks in Buffer C (100 mM sodium phosphate, pH 7.0, 0.5 M sorbitol). The stability was assessed by monitoring aggregation formation with analytical size exclusion chromatography (SEC) equilibrated with Buffer D (100 mM sodium phosphate, pH 7.0, 10% glycerol). […] The cause of the aggregation was investigated as follows. There are two cysteine residues found in SG-11 at positions 147 and 151 (relative to SEQ ID NO:7). […] As free sulphydryl groups could cause aggregation by forming unpreferable intermolecular disulfide bonds, it was examined whether the presence of reducing agent, such as β-mercaptoethanol, could prevent the aggregation.

[3] = test system: trypsin

B1: SG-11: Roseburia hominis protein comprising SEQ ID NO:3; tested as SEQ ID NO:5, SEQ ID NO:7 or FLAG-tagged SEQ ID NO:9 (protein, listed as Rosburia hominis)
chain: LEGEESVVYVGKKGVIASLDVETLDQSYYDETELKSYVDAEVEDYTAEHGKNAVKVESLKVEDGVAKLKMKYKTPEDYTAFNGIELYQGKVVASLAAGYVYDGEFARVEEGKVVGAATKQDIYSEDDLKVAIIRANTDVKVDGEICYVSCQNVKLTGKDSVSIRDGYYLETGSVTASVDVTGQESVGTEQLSGTEQMEMTGEPVNADDTEQTEAAAGDGSFETDVYTFIVYK
[1]
  percent growth (epithelial cell wound healing): significant increase in growth
[2]; 4-days incubation at 37° C. in the presence of 2.5% (v/v) β-mercaptoethanol
  aggregation by analytical SEC: greatly suppressed
[2]; 4° C. for 3 weeks in Buffer C (100 mM sodium phosphate, pH 7.0, 0.5 M sorbitol), vs freshly thawed protein
  aggregation formation by analytical SEC: No noticeable change
[2]; 37° C. for one week in Buffer C
  aggregation formation by analytical SEC: clearly showed aggregation peaks
[2]; SG-11 (SEQ ID NO:9)
  free sulfhydryl groups (Ellman's reagent assay): presence of free sulfhydryl groups
[3]
  cleavage by trypsin (SDS-PAGE): a predominant band is generated in the presence of trypsin

From patent US20210380994A1, “LACTOCOCCUS LACTIS EXPRESSION SYSTEM FOR DELIVERING PROTEINS EFFICACIOUS FOR THE TREATMENT OF EPITHELIAL BARRIER FUNCTION DISORDERS” (Second Genome, Inc., priority 2018, published 2021)
